According to patent publication US20220112268A1:

What was measured:
[1] = target: PD-1 on PD-1-positive cells (EL4 cells) (UniProt Q02242); assay: inhibition of PD-L1-human Fc (10 µg/mL) binding to EL4 cells, flow cytometry, competitor PD-L1-human Fc
[2] = target: PD-1 on PD-1-positive cells (EL4 cells) (UniProt Q02242); assay: direct binding of Alexa Fluor 647-labeled sample to EL4 cells, flow cytometry, fraction of positive cells
[3] = target: PD-1 on PD-1-positive cells (EL4 cells) (UniProt Q02242); assay: direct binding to EL4 cells, flow cytometry; reference intact αPD-1
[4] = target: PD-1 on PD-1-positive cells (EL4 cells) (UniProt Q02242); assay: inhibition of PD-L1-human Fc binding to EL4 cells; reference soluble αPD-1-iTEP fusion
[5] = target: PD-1 on PD-1-positive cells (EL4 cells) (UniProt Q02242); assay: inhibition of PD-L1-human Fc binding to EL4 cells; reference intact αPD-1
[6] = target: T cell receptor of OT-I T cells (cognate to the SIINFEKL tetramer), on OT-I T cells; assay: labeled NP incubated with an OT-I/OT-II T cell mixture (1:1); reference free αPD-1 (FIG. 7B)

UniProt Q02242, sequence (Q02242 25-288 limits assumed): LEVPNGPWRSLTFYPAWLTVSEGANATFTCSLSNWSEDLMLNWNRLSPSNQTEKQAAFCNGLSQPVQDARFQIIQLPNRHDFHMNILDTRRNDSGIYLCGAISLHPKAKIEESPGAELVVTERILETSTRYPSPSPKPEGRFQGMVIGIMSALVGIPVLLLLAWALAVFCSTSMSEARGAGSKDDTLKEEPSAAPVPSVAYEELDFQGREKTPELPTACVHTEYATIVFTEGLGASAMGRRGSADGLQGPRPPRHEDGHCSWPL

Row | Substance | EC50 [1] [nM] | EC50 [2] [nM] | fold smaller EC50 than intact αPD-1 [3] [fold] | fold stronger avidity than intact αPD-1 [3] [fold] | fold higher inhibition capacity than the soluble αPD-1-iTEP fusion [4] [fold] | fold lower inhibition capacity than intact αPD-1 [5] [fold] | targeting efficiency (OT-I:OT-II ratio of guided NPs divided by the OT-I:OT-II ratio of free αPD-1) [6]
1 | intact αPD-1 (anti-programmed death-1 antibody, RMP1-14 clone, IgG from hybridoma ascites) | 1320 | 110 |  |  |  |  | 
2 | αPD-1 NP, the nanoparticle form of the αPD-1-iTEP fusion, self-assembled and crosslinked by disulfide bonds | 1190 | 39 | 3 | 4 | 3 |  | 
3 | soluble αPD-1-iTEP fusion, αPD-1(scFv) fused to the amphiphilic diblock iTEP (GAGVPG)70-(GVLPGVG)56-(GC)4 | 4590 | 400 |  |  |  | 3 | 
4 | αPD-1 scFv (recombinant single-chain variable fragment of the anti-PD-1 antibody clone RMP1-14), NH2-Histag(H6)-(GGGSG)3-VH-(GGGSG)4-VL-COOH | 4160 | 320 |  |  |  | 3 | 
5 | SIINFEKL tetramer-guided αPD-1 NP, nanoparticle assembled from iTEP-αPD-1 and iTEP-tetramer (H2-Kb/SIINFEKL) mixed at a 1-to-10 ratio (from UniProt P22629 37-163; P01901 22-305) |  |  |  |  |  |  | 37.3
